Reference: article PMC6233052 (Molecular Biology of the Cell, 2018)
Substitutions are numbered along the chain they refer to. One block for each binder: values may come before it.

Legend:
Experiment in all cases: co-IP
[1] = biological target: T1, HA-tagged WT R-ras (UniProt P10301 1-218)
T1 sequence: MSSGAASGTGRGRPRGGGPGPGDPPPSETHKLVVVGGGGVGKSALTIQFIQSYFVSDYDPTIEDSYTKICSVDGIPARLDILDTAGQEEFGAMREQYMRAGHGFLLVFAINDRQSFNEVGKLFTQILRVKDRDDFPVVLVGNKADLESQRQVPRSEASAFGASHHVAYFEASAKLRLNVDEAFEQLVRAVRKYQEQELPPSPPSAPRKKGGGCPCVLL

[2] = biological target: T2, HA-tagged constitutively active R-ras (G38V) (UniProt P10301 1-218, G38V)
T2 sequence: T1 sequence with G38V

[3] = biological target: T3, HA-tagged CA R-ras mutant (P202A; P203A) (UniProt P10301 1-218, G38V | P202A | P203A)
T3 sequence: T1 sequence with G38V, P202A, P203A

[4] = biological target: HA-tagged FliI LRR
[5] = biological target: T4, HA-tagged full-length FliI (UniProt Q9JJ28 1-1271)
T4 sequence: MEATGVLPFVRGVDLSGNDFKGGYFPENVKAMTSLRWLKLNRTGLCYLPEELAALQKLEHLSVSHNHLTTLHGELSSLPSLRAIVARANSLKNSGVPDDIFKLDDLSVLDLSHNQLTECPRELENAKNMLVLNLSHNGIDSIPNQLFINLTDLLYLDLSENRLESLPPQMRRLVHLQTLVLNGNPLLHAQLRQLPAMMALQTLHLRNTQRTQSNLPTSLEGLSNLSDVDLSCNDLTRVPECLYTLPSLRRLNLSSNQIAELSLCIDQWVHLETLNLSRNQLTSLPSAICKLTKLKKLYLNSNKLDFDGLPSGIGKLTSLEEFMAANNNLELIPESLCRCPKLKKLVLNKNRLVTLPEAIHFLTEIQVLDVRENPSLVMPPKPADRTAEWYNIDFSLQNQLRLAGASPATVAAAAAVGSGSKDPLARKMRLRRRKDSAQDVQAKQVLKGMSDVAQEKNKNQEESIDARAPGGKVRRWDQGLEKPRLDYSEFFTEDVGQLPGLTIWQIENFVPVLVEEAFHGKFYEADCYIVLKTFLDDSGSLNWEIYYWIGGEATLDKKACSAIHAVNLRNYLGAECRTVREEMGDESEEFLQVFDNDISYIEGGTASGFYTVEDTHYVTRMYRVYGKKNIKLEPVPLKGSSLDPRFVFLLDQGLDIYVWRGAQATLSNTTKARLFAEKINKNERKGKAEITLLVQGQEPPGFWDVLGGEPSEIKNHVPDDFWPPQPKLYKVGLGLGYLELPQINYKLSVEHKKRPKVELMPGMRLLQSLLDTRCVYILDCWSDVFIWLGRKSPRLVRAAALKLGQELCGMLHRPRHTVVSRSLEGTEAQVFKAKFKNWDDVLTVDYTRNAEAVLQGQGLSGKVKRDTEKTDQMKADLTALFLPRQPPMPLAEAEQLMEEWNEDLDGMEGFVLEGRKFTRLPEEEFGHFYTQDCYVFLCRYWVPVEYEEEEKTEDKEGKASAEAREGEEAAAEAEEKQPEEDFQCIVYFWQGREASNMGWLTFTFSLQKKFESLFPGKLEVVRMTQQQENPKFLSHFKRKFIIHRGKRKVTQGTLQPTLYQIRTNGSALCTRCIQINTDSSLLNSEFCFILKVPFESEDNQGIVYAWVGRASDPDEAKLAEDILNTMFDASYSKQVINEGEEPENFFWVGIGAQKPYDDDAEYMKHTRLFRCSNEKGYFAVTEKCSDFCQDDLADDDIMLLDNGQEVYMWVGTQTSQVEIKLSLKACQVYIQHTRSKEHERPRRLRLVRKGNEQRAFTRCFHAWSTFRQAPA

fold association compared with DN R-ras [1]: 2.5 fold | fold association compared with DN R-ras [2]: 3.5 fold | fold reduction of association compared with CA R-ras [3]: 4 fold
B1: Flightless I (FliI), endogenous (natural protein)
chain: T4 sequence

fold association compared with FliI GLD [4]: 4 fold | fold association compared with FliI GLD [5]: 4.6 fold
B2: R-ras, endogenous (natural protein)
chain: MSSGAASGTGRGRPRGGGPGPRDPPPGETHKLVVVGGGGVGKSALTIQFIQSYFVSDYDPTIEDSYTKICTVDGIPARLDILDTAGQEEFGAMREQYMRAGNGFLLVFAINDRQSFNEVGKLFTQILRVKDRDDFPIVLVGNKADLENQRQVLRSEASSFSASHHMTYFEASAKLRLNVDEAFEQLVRAVRKYQEQELPPSPPSAPRKKDGGCPCVLL
